Laboratory results as given in IntAct's records for PubMed 11438675.

B1: Nibrin (Homo sapiens), O60934 (parent)
chain: MWKLLPAAGPAGGEPYRLLTGVEYVVGRKNCAILIENDQSISRNHAVLTANFSVTNLSQTDEIPVLTLKDNSKYGTFVNEEKMQNGFSRTLKSGDGITFGVFGSKFRIEYEPLVACSSCLDVSGKTALNQAILQLGGFTVNNWTEECTHLVMVSVKVTIKTICALICGRPIVKPEYFTEFLKAVESKKQPPQIESFYPPLDEPSIGSKNVDLSGRQERKQIFKGKTFIFLNAKQHKKLSSAVVFGGGEARLITEENEEEHNFFLAPGTCVVDTGITNSQTLIPDCQKKWIQSIMDMLQRQGLRPIPEAEIGLAVIFMTTKNYCDPQGHPSTGLKTTTPGPSLSQGVSVDEKLMPSAPVNTTTYVADTESEQADTWDLSERPKEIKVSKMEQKFRMLSQDAPTVKESCKTSSNNNSMVSNTLAKMRIPNYQLSPTKLPSINKSKDRASQQQQTNSIRNYFQPSTKKRERDEENQEMSSCKSARIETSCSLLEQTQPATPSLWKNKEQHLSENEPVDTNSDNNLFTDTDLKSIVKNSASKSHAAEKLRSNKKREMDDVAIEDEVLEQLFKDTKPELEIDVKVQKQEEDVNVRKRPRMDIETNDTFSDEAVPESSKISQENEIGKKRELKEDSLWSAKEISNNDKLQDDSEMLPKKLLLTEFRSLVIKNSTSRNPSGINDDYGQLKNFKKFKKVTYPGAGKLPHIIGGSDLIAHHARKNTELEEWLRQEMEVQNQHAKEESLADDLFRYNPYLKRRR

Variants of: B1
Settings: with chk2_human CHEK2, O96017
Chain of chk2_human CHEK2, O96017 (O96017 whole entry): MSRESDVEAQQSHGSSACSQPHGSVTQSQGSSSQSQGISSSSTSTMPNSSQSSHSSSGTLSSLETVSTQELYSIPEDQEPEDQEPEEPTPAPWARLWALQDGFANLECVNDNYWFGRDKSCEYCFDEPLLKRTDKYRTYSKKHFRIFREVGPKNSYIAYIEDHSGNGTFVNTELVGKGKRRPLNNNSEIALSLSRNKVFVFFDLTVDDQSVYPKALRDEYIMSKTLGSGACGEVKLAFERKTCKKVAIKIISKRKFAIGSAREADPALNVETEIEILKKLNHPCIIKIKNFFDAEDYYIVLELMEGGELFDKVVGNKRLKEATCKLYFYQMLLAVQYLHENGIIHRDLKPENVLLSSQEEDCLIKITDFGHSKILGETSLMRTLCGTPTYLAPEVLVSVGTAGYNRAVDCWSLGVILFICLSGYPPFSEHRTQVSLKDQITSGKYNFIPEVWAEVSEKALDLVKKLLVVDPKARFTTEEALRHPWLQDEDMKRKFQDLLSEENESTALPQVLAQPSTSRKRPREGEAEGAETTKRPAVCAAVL

effect of a mutation on the interaction	Variant
decreasing interaction	S343A
